Laboratory results as given in publication PMC3900457.

B1: wild-type ecdysone receptor DNA binding domain (EcRDBDWT) [Drosophila melanogaster] / itself (parent)
chain: APRVQEELCLVCGDRASGYHYNALTCEGCKGFFRRSVTKSAVYCCKFGRACEMDMYMRRKCQECRLKKCLAVGMRPECVVPENQCAMKRREKKAQKEKDKMTTSPSSQHG
B2: wild-type ecdysone receptor DNA binding domain (EcRDBDWT) [Drosophila melanogaster] / ultraspiracle DNA binding domain (UspDBD) [Drosophila melanogaster] (parent)
chain 1: B1 chain
chain 2: NHPLSGSKHLCSICGDRASGKHYGVYSCEGCKGFFKRTVRKDLTYACRENRNCIIDKRQRNRCQYCRYQKCLTCGMKREAVQEERQ

Variants of: B1
Test: EMSA
Conditions: with itself; total protein 200 nM; homodimer complex (CIIE) on hsp27pal DNA probe; parent: 44; read off a plot

Row | response (% hsp27pal bound) | Variant
1 | 47 | APRVQEELCLVCGDRASGYHYNALTCEGCKGFFRRSVTKSAVYCCKFGRACEMDMYMRRKCQECRFKKCLAVGMRPECVVPENQCAMKRREKKAQKEKDKMTTSPSSQHG [chain 1 L66F]
2 | 42 | APRVQEELCLVCGDRASGYHYNALTCEGCKGFFRRSVTKSAVYCCKFGRACEMDMYWRRKCQECRLKKCLAVGMRPECVVPENQCAMKRREKKAQKEKDKMTTSPSSQHG [chain 1 M57W]
3 | 23 | APRVQEELCLVCGDRASGYHYNALTCEGCKGFFRRSVTKSAVYCCKFGRACEMDMYMRRKCQECRLKKCLAMGMRPECVVPENQCAMKRREKKAQKEKDKMTTSPSSQHG [chain 1 V72M]
4 | 7.4 | APRVQEELCLVCGDRASGYHYNALTCEGCKGFFRRSVTKSAVYCCKFGRACEMDMYMRRKCQECRLKKCLAEGMRPECVVPENQCAMKRREKKAQKEKDKMTTSPSSQHG [chain 1 V72E]
5 | 39 | APRVQEELCLVCGDRASGYHYNALTCEGCKGFFRRSVTKSAVYCCKFGRACEMDMYMRRKCQECRLKKALAVGMRPECVVPENQCAMKRREKKAQKEKDKMTTSPSSQHG [chain 1 C69A]
6 | 45 | APRVQEELCLVCGDRASGYHYNARTCEGCKGFFRRSVTKSAVYCCKFGRACEMDMYMRRKCQECRLKKCLAVGMRPECVVPENQCAMKRREKKAQKEKDKMTTSPSSQHG [chain 1 L24R]

Same assay, conditions: with itself; total protein 50 nM; homodimer complex (CIIE) on hsp27pal DNA probe; parent: 19; read off a plot

Row | response (% hsp27pal bound) | Variant
7 | 36 | APRVQEELCLVCGDRASGYHYNARTCEGCKGFFRRSVTKSAVYCCKFGRACEMDMYWRRKCQECRFKKCLAVGMRPECVVPENQCAMKRREKKAQKEKDKMTTSPSSQHG [chain 1 L24R M57W L66F]
8 | 22 | APRVQEELCLVCGDRASGYHYNARTCEGCKGFFRRSVTKSAVYCCKFGRACEMDMYWRRKCQECRLKKCLAVGMRPECVVPENQCAMKRREKKAQKEKDKMTTSPSSQHG [chain 1 L24R M57W]
9 | 20 | APRVQEELCLVCGDRASGYHYNARTCEGCKGFFRRSVTKSAVYCCKFGRACEMDMYMRRKCQECRFKKCLAVGMRPECVVPENQCAMKRREKKAQKEKDKMTTSPSSQHG [chain 1 L24R L66F]
10 | 31 | APRVQEELCLVCGDRASGYHYNALTCEGCKGFFRRSVTKSAVYCCKFGRACEMDMYWRRKCQECRFKKCLAVGMRPECVVPENQCAMKRREKKAQKEKDKMTTSPSSQHG [chain 1 M57W L66F]

Variants of: B2
Test: EMSA
Conditions: with ultraspiracle DNA binding domain (UspDBD) [Drosophila melanogaster]; equimolar mixture of EcRDBD and UspDBD, total protein 200 nM; heterodimer complex (CIIUE) on hsp27pal DNA probe; parent: 62; read off a plot

Row | response (% hsp27pal bound) | Variant
11 | 64 | chain 1 APRVQEELCLVCGDRASGYHYNALTCEGCKGFFRRSVTKSAVYCCKFGRACEMDMYMRRKCQECRFKKCLAVGMRPECVVPENQCAMKRREKKAQKEKDKMTTSPSSQHG [chain 1 L66F]
12 | 57 | chain 1 APRVQEELCLVCGDRASGYHYNALTCEGCKGFFRRSVTKSAVYCCKFGRACEMDMYMRRKCQECRLKKCLAMGMRPECVVPENQCAMKRREKKAQKEKDKMTTSPSSQHG [chain 1 V72M]
13 | 42 | chain 1 APRVQEELCLVCGDRASGYHYNALTCEGCKGFFRRSVTKSAVYCCKFGRACEMDMYMRRKCQECRLKKCLAEGMRPECVVPENQCAMKRREKKAQKEKDKMTTSPSSQHG [chain 1 V72E]
14 | 61 | chain 1 APRVQEELCLVCGDRASGYHYNALTCEGCKGFFRRSVTKSAVYCCKFGRACEMDMYWRRKCQECRLKKCLAVGMRPECVVPENQCAMKRREKKAQKEKDKMTTSPSSQHG [chain 1 M57W]
15 | 58 | chain 1 APRVQEELCLVCGDRASGYHYNARTCEGCKGFFRRSVTKSAVYCCKFGRACEMDMYMRRKCQECRLKKCLAVGMRPECVVPENQCAMKRREKKAQKEKDKMTTSPSSQHG [chain 1 L24R]
16 | 55 | chain 1 APRVQEELCLVCGDRASGYHYNALTCEGCKGFFRRSVTKSAVYCCKFGRACEMDMYMRRKCQECRLKKALAVGMRPECVVPENQCAMKRREKKAQKEKDKMTTSPSSQHG [chain 1 C69A]

Same assay, conditions: with ultraspiracle DNA binding domain (UspDBD) [Drosophila melanogaster]; equimolar mixture of EcRDBD and UspDBD, total protein 50 nM; heterodimer complex (CIIUE) on hsp27pal DNA probe; parent: 42; read off a plot

Row | response (% hsp27pal bound) | Variant
17 | 51 | chain 1 APRVQEELCLVCGDRASGYHYNALTCEGCKGFFRRSVTKSAVYCCKFGRACEMDMYWRRKCQECRFKKCLAVGMRPECVVPENQCAMKRREKKAQKEKDKMTTSPSSQHG [chain 1 M57W L66F]
18 | 39 | chain 1 APRVQEELCLVCGDRASGYHYNARTCEGCKGFFRRSVTKSAVYCCKFGRACEMDMYMRRKCQECRFKKCLAVGMRPECVVPENQCAMKRREKKAQKEKDKMTTSPSSQHG [chain 1 L24R L66F]
19 | 57 | chain 1 APRVQEELCLVCGDRASGYHYNARTCEGCKGFFRRSVTKSAVYCCKFGRACEMDMYWRRKCQECRFKKCLAVGMRPECVVPENQCAMKRREKKAQKEKDKMTTSPSSQHG [chain 1 L24R M57W L66F]
20 | 45 | chain 1 APRVQEELCLVCGDRASGYHYNARTCEGCKGFFRRSVTKSAVYCCKFGRACEMDMYWRRKCQECRLKKCLAVGMRPECVVPENQCAMKRREKKAQKEKDKMTTSPSSQHG [chain 1 L24R M57W]
